From PMC7538557

Target: recombinant SSA (streptococcal superantigen SSA of S. pyogenes HKU16, without the predicted signal peptide) (S. pyogenes HKU16)

Q: “recombinant SSA (streptococcal superantigen SSA of S. pyogenes HKU16, without the predicted signal peptide) (natural protein)” was tested. Which stoichiometry N did it give?
A: 2
